Measurements taken from patent US9018171B2, “Uses of an immunomodulatory protein (GMI) from Ganoderma microsporum” (Mycomagic Biotechnology Co., Ltd., priority 2010, dated 2015).
Read-outs that look alike come from different tables or passages of the source.

Assays:
[1] = system: SF-268; assay: NCI60 in vitro screening, CNS Cancer; format: cell-based
[2] = system: Stat3; assay: Western blotting, EGF-induced phosphorylation; format: cell-based, human; settings: A549 cells, pretreated 8 h, EGF 10 minutes
Experimental: (§1) A549 cells (5×10^5 cells/60 mm) were pretreated with various concentrations of GMI (4, 16 μg/ml) or AG1478 (EGFR inhibitors) for 8 hours prior to incubation for 10 minutes with EGF (as indicated). Cell lysates were subject to immunoblotting with phospho-specific EGFR (Y1068) (A and B), anti-phospho-AKT (A), anti-AKT (A), anti-phospho-GSK3β (A) or anti-phospho-STAT3 antibodies (B). Protein loading was determined by Western blotting against β-actin (A and B).
(§2) Total cell lysates were prepared in RIPA buffer (100 μl in 60 mm in dish). Fifty μg of lysate were loaded onto an 8% polyacrylamide gel and analyzed by SDS gel electrophoresis. After transfer to PVDF (Amersham), blots were blocked with 5% skim milk in TBS (10 mM Tris-CL pH7.5, 150 mM NaCl) containing 0.2% Tween-20. Blots were probed with antibodies (at their recommended dilutions) in 5% skim milk in TBS overnight at 4° C. Following detection with the appropriate horseradish-peroxidase conjugated secondary antibody (Cell Signaling), blots were developed by enhanced chemiluminescence according to the manufacturer's directions (Perkin Elmer Life Sciences). All experiments were performed in duplicate.
(§3) To assess whether GMI mediates and/or inhibits phosphorylation of Akt and Stat3, the invention investigated the effect of GMI on the phosphorylation status of Akt and Stat3 in A549 cells treated with various concentrations of GMI for 8 h.

[3] = system: EGFR; assay: Western blotting, EGF-induced phosphorylation; format: cell-based, human; settings: A549 cells, pretreated 8 h, EGF 10 minutes
Experimental: as §1, §2, §3

[4] = system: Akt; assay: Western blotting, EGF-induced phosphorylation; format: cell-based, human; settings: A549 cells, pretreated 8 h, EGF 10 minutes
Experimental: as §1, §2, §3

[5] = system: A549 cells; assay: Actin staining; format: cell-based, human
Experimental: A549 cells (1×10^4 cells/well) were seeded onto 24 wells with coverslip. A549 cells were pretreated with various concentrations of GMI (2, 4, 8 μg/ml) for 1 h before being stimulated with 10 ng/mL EGF for 23 h. A549 cells treated with or without EGF were stained with Texas Red®-X phalloidin and Alexa Fluor 488 DNase I conjugate to detect F-actin (red) and G-actin (green).
Cells were washed twice with PBS and fixed in a 3.7% paraformaldehyde-PBS solution for 10 min at room temperature. After two additional washes with PBS, cells were permeabilized with a solution of 0.1% Triton X-100 in PBS for 3 to 5 min and washed again with PBS. Texas Red-X phalloidin (2 units/mL) and Alexa Fluor 488 DNase I conjugate (9 μg/mL) were used to localize filamentous actin (F-actin) and G-actin. Fluorescent dyes were diluted with blocking solution (1% bovine serum albumin and 0.025% saponin in PBS) and added to coverslips for 60 min at room temperature. After three washes with PBS, coverslips were mounted on a microscope slide with Prolong Gold antifade reagent with DAPI (Life Technologies). F-actin cytoskeleton imaging was performed with a confocal laser scanning microscope (ZEISS LSM510 BETA) at ×400 magnification.

[6] = system: SK-MEL-2; assay: NCI60 in vitro screening, Melanoma; format: cell-based; settings: SK-MEL-2, one dose
[7] = system: HS 578T; assay: NCI60 in vitro screening, Breast Cancer; format: cell-based
[8] = system: A549/ATCC; format: cell-based
[9] = system: UACC-257; assay: NCI60 in vitro screening, Melanoma; format: cell-based
[10] = system: PC-3; assay: NCI60 in vitro screening, Prostate Cancer; format: cell-based
[11] = system: HCT-116; assay: NCI60 in vitro screening, Colon Cancer; format: cell-based
[12] = system: SW-620; assay: NCI60 in vitro screening, Colon Cancer; format: cell-based
[13] = system: HOP-62; format: cell-based
[14] = system: SF-539; assay: NCI60 in vitro screening, CNS Cancer; format: cell-based
[15] = system: NCI-H460; format: cell-based

B1: GMI: immunomodulatory protein from Ganoderma microsporum, amino acid sequence SEQ ID NO: 3, manufactured by Mycomagic Biotechnology Co., Ltd. (protein, listed as Ganoderma microsporum)
chain: MSDTALIFTLAWNVKQLAFDYTPNWGRGRPSSFIDTVTFPTVLTDKAYTYRVVVSGKDLGVRPSYAVESDGSQKINFLEYNSGYGIADTNTIQVYVIDPDTGNNFIVAQWN
TGI ([1]; SF-268): >1.25E2 | Percent Growth ([1]; SF-268, Log10 Concentration 0.1): 108% | Percent Growth ([1]; SF-268, Log10 Concentration 1.1): 52% | Percent Growth ([1]; SF-268, Log10 Concentration 2.1): 4% | Percent Growth ([1]; SF-268, Log10 Concentration −0.9): 101% | Percent Growth ([1]; SF-268, Log10 Concentration −1.9): 95% | Growth Percent ([1]; SF-268, one dose): 39.72% | GI50 ([1]; SF-268, in µg/mL): 2.02E1 | EGF-induced activation (phosphorylation) of Stat3 [2]: little effect | EGF-induced activation (phosphorylation) of EGFR [3]: significantly inhibits | EGF-induced activation (phosphorylation) of Akt [4]: significantly inhibits | elongation and polymerization of F-actin and G-actin ([5]; A549 cells treated with EGF or GMI alone): abrogated | filopodia formation ([5]; A549 cells, GMI 2, 4, 8 μg/ml, EGF 10 ng/mL): fewer filopodia fibers | focal contact size ([5]; A549 cells, GMI alone and combined with EGF): reduced by GMI in a dose-dependent manner | Growth Percent [6]: 105.92% | TGI [7]: >1.25E2 | Percent Growth ([7]; Log10 Concentration 0.1): 108% | Percent Growth ([7]; Log10 Concentration 1.1): 96% | Percent Growth ([7]; Log10 Concentration 2.1): 64% | Percent Growth ([7]; Log10 Concentration −0.9): 106% | Percent Growth ([7]; Log10 Concentration −1.9): 104% | TGI [8]: >1.25E2 | Percent Growth ([8]; Log10 Concentration 0.1): 94% | Percent Growth ([8]; Log10 Concentration 1.1): 51% | Percent Growth ([8]; Log10 Concentration 2.1): 8% | Percent Growth ([8]; Log10 Concentration −0.9): 99% | Percent Growth ([8]; Log10 Concentration −1.9): 102% | GI50 ([8]; in µg/mL): 1.31E1 | Growth Percent ([8]; one dose): 44.29% | TGI ([9]; UACC-257): >1.25E2 | Percent Growth ([9]; UACC-257, Log10 Concentration 0.1): 98% | Percent Growth ([9]; UACC-257, Log10 Concentration 1.1): 37% | Percent Growth ([9]; UACC-257, Log10 Concentration 2.1): 52% | Percent Growth ([9]; UACC-257, Log10 Concentration −0.9): 99% | Percent Growth ([9]; UACC-257, Log10 Concentration −1.9): 103% | Growth Percent ([9]; UACC-257, one dose): 89.25% | TGI ([10]; PC-3): 3.87E1 | Percent Growth ([10]; PC-3, Log10 Concentration 0.1): 98% | Percent Growth ([10]; PC-3, Log10 Concentration 1.1): 73% | Percent Growth ([10]; PC-3, Log10 Concentration 2.1): −76% | Percent Growth ([10]; PC-3, Log10 Concentration −0.9): 102% | Percent Growth ([10]; PC-3, Log10 Concentration −1.9): 104% | Growth Percent ([10]; PC-3, one dose): 79.73% | GI50 ([10]; PC-3, in µg/mL): 1.79E1 | LC50 ([10]; PC-3, in µg/mL): 8.34E1 | TGI ([11]; HCT-116): >1.25E2 | Percent Growth ([11]; HCT-116, Log10 Concentration 0.1): 101% | Percent Growth ([11]; HCT-116, Log10 Concentration 1.1): 103% | Percent Growth ([11]; HCT-116, Log10 Concentration 2.1): 104% | Percent Growth ([11]; HCT-116, Log10 Concentration −0.9): 105% | Percent Growth ([11]; HCT-116, Log10 Concentration −1.9): 98% | Growth Percent ([11]; HCT-116, one dose): 101.77% | TGI ([12]; SW-620): >1.25E2 | Percent Growth ([12]; SW-620, Log10 Concentration 0.1): 102% | Percent Growth ([12]; SW-620, Log10 Concentration 1.1): 95% | Percent Growth ([12]; SW-620, Log10 Concentration 2.1): 53% | Percent Growth ([12]; SW-620, Log10 Concentration −0.9): 100% | Percent Growth ([12]; SW-620, Log10 Concentration −1.9): 102% | Growth Percent ([12]; SW-620, one dose): 87.57% | TGI ([13]; HOP-62): 5.99E1 | Percent Growth ([13]; HOP-62, Log10 Concentration 0.1): 102% | Percent Growth ([13]; HOP-62, Log10 Concentration 1.1): 73% | Percent Growth ([13]; HOP-62, Log10 Concentration 2.1): −34% | Percent Growth ([13]; HOP-62, Log10 Concentration −0.9): 102% | Percent Growth ([13]; HOP-62, Log10 Concentration −1.9): 104% | Growth Percent ([13]; HOP-62, one dose): 53.89% | GI50 ([13]; HOP-62, in µg/mL): 2.03E1 | TGI ([14]; SF-539): 6.02E1 | Percent Growth ([14]; SF-539, Log10 Concentration 0.1): 102% | Percent Growth ([14]; SF-539, Log10 Concentration 1.1): 80% | Percent Growth ([14]; SF-539, Log10 Concentration 2.1): −37% | Percent Growth ([14]; SF-539, Log10 Concentration −0.9): 111% | Percent Growth ([14]; SF-539, Log10 Concentration −1.9): 108% | Growth Percent ([14]; SF-539, one dose): 48.19% | GI50 ([14]; SF-539, in µg/mL): 2.26E1 | TGI ([15]; NCI-H460): >1.25E2 | Percent Growth ([15]; NCI-H460, Log10 Concentration 0.1): 100% | Percent Growth ([15]; NCI-H460, Log10 Concentration 1.1): 91% | Percent Growth ([15]; NCI-H460, Log10 Concentration 2.1): 33% | Percent Growth ([15]; NCI-H460, Log10 Concentration −0.9): 104% | Percent Growth ([15]; NCI-H460, Log10 Concentration −1.9): 103% | Growth Percent ([15]; NCI-H460, one dose): 86.38% | GI50 ([15]; NCI-H460, in µg/mL): 6.47E1
